Reference: patent US9073976B2, “ND2 peptides and methods of treating neurological disease” (NoNO Inc., priority 2010, dated 2015)

Experiments:
ND2 310-321 = target: T1, ND2 310-321 (Homo sapiens, UniProt P03891); test: Dot blot of Src fragments probed with biotinylated ND2 310-321; format: binding; details: FIG. 5A
T1 construct: 7; NVKMKWQFEHTK
Experimental: Src40-49-Tat indicate a fusion peptide in which the human HIV-1 tat protein transduction domain [[…]] […] (SEQ ID NO:10). […] The peptides were plated at a concentration of ˜5 uM.

[1] = target: T2, binding of biotinylated Src40-49 to Tat-ND2 310-321 (Homo sapiens, UniProt P03891); test: Competition ELISA, binding of biotinylated Src40-49 to pre-coated Tat-ND2 310-321; details: FIG. 5E
T2 construct: 10; Tat-ND2 310-321; […]
T2 sequence (P03891 other isoform, or with tags, fused parts or gaps): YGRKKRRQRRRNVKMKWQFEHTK
Experimental: Competition ELISAs were also performed. […] In a similar manner, ND2 constructs bearing amino acid sequences from the 300-321 region are able to act as inhibitors of the interaction between ND2 and Src.

[2] = target: T3, ND2, Src, NMDAR subunits, and PSD95 in hippocampal neurons (Rattus norvegicus, UniProt P11662+Q9WUD9); test: Immunocytochemistry colocalization in 14DIV hippocampal neurons; format: cell-based; details: 1 uM peptide for 1 h, day 14 neurons
T3 construct: endogenous in cells; host or cells: primary hippocampal neurons from E17/E18 Wistar rats, 14 DIV
Experimental: A series of experiments was performed to examine the localization of ND2, Src, NMDAR subunits, and PSD95 in hippocampal neurons by immunocytochemistry in the presence of Tat, Tat-ND2 310-321, or Src 40-49-Tat. Briefly, hippocampal neurons were isolated from embryonic day #17/E18 Wistar rats, and cultured in neurobasal media containing coverslips with B27 and glutamax. Cells were then treated for 1 hr with luM peptide before fixing by standard methods. Proteins were visualized using specific antibodies and secondary antibodies coupled to fluorescent molecules. Colocalization of fluorescence was calculated by merging the images in Photoshop and calculating the % colocalized between pairs as the total colocalized fluorescence clusters divided by the total number of clusters (e.g., % colocalized ND2 with Src=(total colocalized)/(total ND2 clusters); % colocalized Src with ND2=(total colocalized)/(total Src clusters)).
Hippocampal neurons cultured on coverslips were treated with 1 uM of Src 40-49-Tat, Tat-ND2 310-321 or Tat for 1 h at the day 14. Then neurons were incubated in 4% paraformaldehyde and 4% sucrose in phosphate-buffered saline (PBS) for 10 minutes followed by 5 minutes […] at room temperature (RT). Cells were permeabilized with 0.25% Triton X-100 in PBS for 5 minutes and by treatment with 5% donkey serum in PBS for 30 minutes at RT. The cultures were incubated with a mixture of the primary antibodies, raised in various species, in 0.25% Triton X-100 PBS for 2 hours at RT, washed, and incubated for 1 hour at RT with a mixture of species-specific secondary antibodies all raised in donkey and conjugated to either Texas Red, or FITC fluorophores (1:200 dilution in 0.25% Triton X-100 PBS). The coverslips were washed with PBS and mounted using ProLong Gold antifade reagent (Invitrogen). Images were collected using a 60× pan-fluor objective on a Nikon Eclipse TE 200 microscope. The images were analyzed with PhotoShop 7 (Adobe, San Jose, Calif.). Brightness and contrast were adjusted, sharpened using the unsharpen mask tool, and the images were merged for color colocalization.
For quantification of the colocalization, the maximum intensities of the fluorophore channels were normalized and the background fluorescence of each channel seen in the dendrites was subtracted, the color images were merged. Two clusters in two different channels were considered colocalizing when at least 66% of the surface of one clusters in one of the two channels overlapped with a clusters in the other channel. For each combination of antibodies, three independent immunofluorescence experiments were done. Each measurement was taken from a 50-m-long dendritic segment (with an average width of 2 m). Colocalization was expressed as the percent of the total clusters analyzed.

[3] = target: T4, NMDAR signaling complex in cultured hippocampal neurons (Rattus norvegicus, UniProt P11662+Q9WUD9); test: Co-immunoprecipitation from cultured hippocampal neurons; format: cell-based; details: IP anti-NR2B; 1 uM for 1 hour or 3 uM for 2 hours
T4 construct: endogenous in cells; host or cells: primary hippocampal neurons from E17/E18 Wistar rats, 14 DIV
Experimental: We next examined the effect of Tat-ND2 310-321 and Src40-49-Tat on the association of proteins in the NMDAR signaling complex in cultured hippocampal neurons at 14DIV. Neurons were treated with Tat-ND2 310-321 or Src40-49 at 1 uM for 1 hour (FIG. 13A) or at 3 uM for 2 hours (FIG. 13B). Cell lysates were purified and immunoprecipitated with anti-NR2B (left) and then stained with anti NR2B, anti-PSD95, anti-Src and anti-ND2 antibodies.
NMDAR and its associated proteins were prepared from cultured hippocampal (HP) neurons or rat brains. For in vitro competition experiments, two week HP neurons were collected after treatment with Src 40-49-Tat, Tat-ND2 310-321 or Tat peptides for 1 h at luM concentration or for 2 hours at 3 uM concentration then cells were quickly harvested and homogenized.
Lysates were incubated with Dynabeads protein G (Invitrogen) and selected antibodies for 30 minutes at room temperature. Isolated immunoprecipitates were resolved using SDS-PAGE and transferred to nitrocellulose membranes. The membranes were probed with selected detection antibodies, then stripped and reprobed with other detection antibodies.

[4] = target: T5, NMDA Receptor complex in rat brains subjected to 3PVO (Rattus norvegicus, UniProt P11662+Q9WUD9); test: Co-immunoprecipitation from rat brains subjected to 3PVO stroke; format: in vivo; details: injection 1 hour post-surgery, harvest 2 hours post-surgery; compared with Tat-ND2 310-321
T5 construct: from tissue; host or cells: rat brain cortex (ipsilateral and contralateral hemispheres) after 3PVO ischemia
Experimental: The status of these proteins was next examined in rat brains that had been subjected to a 3PVO stroke. After 3PVO ischemia, rodents were given either Tat-ND2 310-321 or saline via tail vein injection. At one hour post-surgery, the brains were quickly harvested and lysed. Following IP with anti NR2B antibodies, the membranes were incubated with anti phosphotyrosine antibodies, developed, and subsequently probed with anti Src, phosphorylated Src (pTys) and anti PSD95 antibodies. As an internal control, both the ipsilateral and contralateral hemispheres (I and C, respectively) were prepared.
A second set of experiments was performed on animals subjected to 3PVO, modified such that the saline, Src 40-49-Tat or Tat-ND2 310-321 was administered by tail vein injection 1 hour post-surgery and the brains were harvested and lysed 2 hours post-surgery.
For in vivo experiments, one hour after 3PVO ischemia, rats were injected with indicated peptides or saline by intravenous tail vein. Two hours after surgery (one hour after administration of compounds), the selected cortex of the brain was quickly harvested and homogenized.
Lysates were incubated with Dynabeads protein G (Invitrogen) and selected antibodies for 30 minutes at room temperature. Isolated immunoprecipitates were resolved using SDS-PAGE and transferred to nitrocellulose membranes. […]

rats subjected to 3PVO = test: Three pial vessel occlusion (3PVO) model of stroke, infarct volume; format: in vivo, rat; details: 3 nmol/g intravenous one hour post-surgery; 24 hours after surgery; n=10
Experimental: The efficacy of ND2 inhibitors in the treatment of stroke was examined using the three pial vessel occlusion (3PVO) model of stroke. This is a permanent model of stroke that creates small but consistent infarcts at 24 hours.
Male Sprague Dawley rats (n=10 in each group) were surgically subjected to permanent occlusion of the pial vessels. One hour post-surgery, animals were given an intravenous injection of Saline, Tat-NR2B9c (Aarts et al, Science, 2002), Src 40-49-Tat or Tat-ND2 310-321 and allowed to further recover in their cages. 24 hours after surgery, brains were harvested, sliced and incubated with TTC to visualize the areas of infarction. The infarct volume of each animal was determined, as well as the average volumes for each group of ten.
Both peptides were myristoylated via an amide bond to the alpha-amino group of the N-terminal amino acid of the peptide.
Male Sprague Dawley rats (n=10 in each group) weighing between 230 and 290 g were used for this study. Experiments were performed on fasted rats (Free overnight access to water but not food). For permanent three pial vessel occlusion (3PVO) was performed as described previously (Forder J et al., 2005, supra). In brief, rats were anesthetized with a 0.5 ml/kg intramuscular injection of ketamine (100 mg/kg), acepromazine (2 mg/kg), and xylazine (5 mg/kg), supplemented with one-third of the initial dose as required. An anal temperature probe was inserted, and the animal was placed on a heating pad maintained at 37° C. The skull was exposed via a midline incision and scraped free of tissue. Using a dissecting microscope and a pneumatic dental drill, a 6- to 8-mm cranial window was made over the right somatosensory cortex (2 mm caudal and 5 mm lateral to bregma) by drilling a rectangle through the skull and lifting off the piece of skull while keeping the dura intact. The 3 pial arteriolar middle cerebral artery branches around the barrel cortex were selected and electrically cauterized through the dura. After the cauterizations, the scalp was sutured. […]

[5] = system: association of Src and ND2; details: Liu et al. 2008; cited from earlier work
NMDA currents = details: Liu et al. 2008; cited from earlier work
[6] = system: Formalin, CFA and peripheral nerve constriction pain models; details: Liu et al. 2008; cited from earlier work

Which “binding of biotinylated ND2 310-321 (dot blot)” value (ND2 310-321) does the source give for KPASADGHRGYGRKKRRQRRR [Src 40-49-Tat] here?
Its value is “bound ND2 310-321”.

What about the “inhibition of binding of biotinylated Src40-49 to Tat-ND2 310-321 (competition ELISA)” value [1] of the same sequence?
Its value is “inhibited”.

What about the “association (colocalization) between ND2 and NR2B” value [2] of the same sequence?
Its value is “do not significantly affect”.

And the “colocalization between PSD95 and NR2B” value [2]?
Its value is “similarly disrupted”.

What about the “colocalization of ND2 with PSD95” value [2] of the same sequence?
The value was “reduces the colocalization of ND2 with PSD95”.

And the “colocalization of Src and ND2” value [2]?
Its value is “able to reduce the amount of colocalization of Src and ND2”.

And the “colocalization between NR2B and Src” value ([2]; FIG. 10)?
Its value is “able to reduce the colocalization”.

And the “colocalization between PSD95 and Src” value ([2]; FIG. 11)?
The value was “able to reduce the colocalization”.

And the “association of NR2B with Src” value [3]?
The value was “reduces the association of NR2B with Src”.

And the “uncoupling PSD95 and Src from the NMDA Receptor” value [4]?
Its value is “not nearly as effective”.

What about the “reducing infarct volumes (statistical effect)” value (rats subjected to 3PVO) of the same sequence?
The value was “not statistically effective”.

What about the “association of Src and ND2 in neuronal lysates” value [5] of the same sequence?
Its value is “disrupt the association of Src and ND2 in neuronal lysates”.

And the NMDA currents (NMDA currents)?
The NMDA currents was “reduced NMDA currents”.

What about the “effect on inflammatory and neuropathic pain” value [6] of the same sequence?
Its value is “beneficial effect”.
